# Biological target: T1, soluble HLA-A*02:01 from TMC expressing A375 melanoma cells (Homo sapiens, UniProt P04439, D140Y/D185E/D98H/E176V/E277Q/G131W/G231S/I119V/I121R/I166T/I218V/L300P/L318F/N151K/N90K/P208A/P217A/Q86G/Q94H/R138H/R169H/T345S)
# T1 construct: TMC expressing A375 melanoma cells were transfected with soluble HLA-A*02:01(sHLA-A*02:01); expressed in transfected cells; host or cells: A375 melanoma cells expressing the MEL218 AAS tandem mini-gene construct
# Experiment: proteomic analysis (RP-HPLC, LC/MS) of peptides eluted from soluble HLA-A*02:01
# Conditions: A375 melanoma cells expressing MEL218 TMC
# Description: To validate neoantigen processing and presentation, proteomic analysis was performed on peptides eluted from soluble HLA-A*02:01 molecules isolated from melanoma cells expressing a TMC encoding AAS candidates from patient MEL218 tumor (Sercarz, E. E., et al., Annu. Rev. Imunol., 11, 729-766, 1993; Assarsson, E., et al., J. Immunol., 178, 7890-7901, 2007). TMC expressing A375 melanoma cells were transfected with soluble HLA-A*02:01(sHLA-A*02:01) and single cell sorted for a high (>1000 ng/ml in static culture) sHLAA*02:01 producing clone. The sHLA-A*02:01 construct includes a C-terminal VLDLr epitope purification tag ([…] ID NO. 32) that is recognized by the anti-VLDLr mAb (ATCC CRL-2197). This antibody was also used for quantification of sHLA production as the capture antibody in a sandwich ELISA, with an antibody directed against β2-microglobulin (Dako Cytomation) as the detector antibody. Cells were grown in roller bottles and sHLA/peptide complexes were purified from supernatants by affinity chromatography with the anti-VLDLr antibody (Kaabinejadian, S., et al., P.L.o.S. One, 8, e66298, 2013). Eluate fractions containing sHLA/peptide complexes were brought to a final acetic acid concentration of 10%, pooled, and heated to 78° C. in a water bath. Peptides were purified through a 3 kDa molecular weight cutoff cellulose membrane (EMD Millipore) and lyophilized.
# Synthetic peptides corresponding to the mutant sequences were resuspended in 10% acetic acid in water at 1 μM, and fractionated by RP-HPLC with an acetonitrile gradient in 10 mM ammonium formate at pH 10. Peptide-containing fractions were dried and resuspended in 25 ul of 10% acetic acid and subjected to nanoscale RP-HPLC at pH 2.5 utilizing an Eksigent nanoLC coupled to a TripleTOF 5600 (AB Sciex) quadrupole time-of-flight mass spectrometer (LC/MS). Information dependent acquisition (IDA) was used to obtain MS and MS/MS fragment spectra for peptide ions. The sequence of each peptide was determined by observed mass and fragment ions, and the 1st dimension fraction number and LC/MS retention times were recorded.
# Next, peptides purified from TMC expressing A375 melanoma cells were resuspended in 10% acetic acid and HPLC fractionated under the same conditions and gradient method. Reverse phase HPLC was used to reduce the complexity and determine the elution profile of the pool of soluble HLA-A*02:01 restricted peptides presented by melanoma cells, as well as, the synthetic AAS peptide mixture. FIGS. 40A and 40E illustrate RP-HPLC fractionation of HLA-A*02:01 peptides eluted from the AAS-TMC expressing melanoma cell line (solid trace) and the synthetic peptide mixture containing MEL218 neoantigen candidates (dashed trace), with fraction 50 (FIG. 40A) and fraction 44 (FIG. 40E) indicated. […]
sequence,measurement,value
"YLEPGPVTA [G280, reference compound]",HLA-A*02:01 presentation by LC/MS of eluted peptides,processed and presented in the context of HLA-A*02:01 molecules
